This is an account of results in patent US20050202430A1 (Novartis, published 2005).

The test addresses T1, alpha9 integrin on transfected SW480 colon carcinoma cells (UniProt Q13797 30-1035; P05556 21-798).
T1 construct: whole, on cells; also called α9 integrin; alpha9 beta1 integrin
In words: adhesion of transfected SW480 cells to wells coated with tenascin-W. The source says: IDG tripeptide motifs have been reported to be the recognition sequence for alpha9 beta1 integrin (Yokosaki et al., 1998). Since mouse tenascin-W contains three IDG motifs we investigated whether α9 integrin could be the receptor for tenascin-W. We plated SW480 colon carcinoma cells transfected either with an empty vector or with the vector containing the cDNA for α9 integrin (Yokosaki et al. J Biol. Chem. 1996 Sep. 27;271(39):24144-50) on tenascin-W coated wells.

T1 sequence (Q13797 30-1035, chain 1 of 2): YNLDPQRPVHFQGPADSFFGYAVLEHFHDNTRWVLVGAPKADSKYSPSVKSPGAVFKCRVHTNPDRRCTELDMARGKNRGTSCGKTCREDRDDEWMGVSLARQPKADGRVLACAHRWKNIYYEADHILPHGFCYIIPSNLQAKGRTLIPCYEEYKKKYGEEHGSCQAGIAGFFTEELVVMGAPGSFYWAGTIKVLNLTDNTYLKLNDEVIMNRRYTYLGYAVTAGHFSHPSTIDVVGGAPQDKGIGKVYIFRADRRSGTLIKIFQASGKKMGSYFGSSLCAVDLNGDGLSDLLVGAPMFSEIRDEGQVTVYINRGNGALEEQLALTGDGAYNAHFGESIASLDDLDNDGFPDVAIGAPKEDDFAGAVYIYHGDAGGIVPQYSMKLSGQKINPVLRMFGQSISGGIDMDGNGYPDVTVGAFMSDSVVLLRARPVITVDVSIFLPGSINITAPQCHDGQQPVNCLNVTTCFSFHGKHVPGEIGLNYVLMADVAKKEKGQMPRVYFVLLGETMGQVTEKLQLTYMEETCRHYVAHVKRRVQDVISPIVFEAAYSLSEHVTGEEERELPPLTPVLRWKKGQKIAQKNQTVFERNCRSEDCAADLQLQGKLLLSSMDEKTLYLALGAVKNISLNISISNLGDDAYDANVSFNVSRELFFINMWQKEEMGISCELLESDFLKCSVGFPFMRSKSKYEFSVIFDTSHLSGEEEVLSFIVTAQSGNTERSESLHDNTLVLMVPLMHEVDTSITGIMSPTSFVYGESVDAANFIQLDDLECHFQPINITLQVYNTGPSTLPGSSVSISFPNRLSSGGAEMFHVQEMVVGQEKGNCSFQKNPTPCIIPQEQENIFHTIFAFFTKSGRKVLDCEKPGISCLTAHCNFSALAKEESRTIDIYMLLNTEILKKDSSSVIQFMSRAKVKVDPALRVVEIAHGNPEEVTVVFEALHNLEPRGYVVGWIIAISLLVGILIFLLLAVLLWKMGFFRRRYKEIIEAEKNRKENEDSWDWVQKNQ
T1 sequence (P05556 21-798, chain 2 of 2): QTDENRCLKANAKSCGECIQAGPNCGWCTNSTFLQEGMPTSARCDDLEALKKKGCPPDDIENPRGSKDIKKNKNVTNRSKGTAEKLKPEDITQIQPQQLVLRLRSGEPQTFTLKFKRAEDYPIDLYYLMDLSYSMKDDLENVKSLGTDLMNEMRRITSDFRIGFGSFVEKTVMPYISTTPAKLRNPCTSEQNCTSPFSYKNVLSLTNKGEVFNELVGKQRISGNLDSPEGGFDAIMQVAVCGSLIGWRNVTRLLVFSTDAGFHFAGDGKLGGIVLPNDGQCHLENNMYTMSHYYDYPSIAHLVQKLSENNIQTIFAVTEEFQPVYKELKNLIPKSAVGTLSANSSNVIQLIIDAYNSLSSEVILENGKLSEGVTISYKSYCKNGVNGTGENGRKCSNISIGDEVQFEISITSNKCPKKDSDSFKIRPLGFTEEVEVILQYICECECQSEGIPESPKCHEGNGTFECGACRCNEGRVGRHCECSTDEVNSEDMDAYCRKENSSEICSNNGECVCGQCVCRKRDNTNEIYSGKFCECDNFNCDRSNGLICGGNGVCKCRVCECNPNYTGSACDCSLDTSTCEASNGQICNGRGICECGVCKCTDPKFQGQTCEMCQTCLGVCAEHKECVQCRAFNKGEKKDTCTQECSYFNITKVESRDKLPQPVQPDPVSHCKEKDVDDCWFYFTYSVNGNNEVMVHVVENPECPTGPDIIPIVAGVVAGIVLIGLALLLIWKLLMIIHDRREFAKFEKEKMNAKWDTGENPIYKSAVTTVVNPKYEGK

B1: purified full-length recombinant mouse tenascin-W (C-terminal 6xHis-tag, secreted from HEK 293 cells) (ligand)
chain: TPESPGCSNKEQQVTVSHTYKIDVPKSALVQVETDPQSLSDDGTSLLAPGEDGEEQNIIFRHNIRLQTPQKNCDLADSVQDLLARMKKLEEEMAELKEQCNTNRCCQGAADLSRHCSGHGTFLPETCSCHCDQGWEGADCDQPTCPGACNGHGRCVDGQCVCDAPYVGVDCAYAACPQDCSGHGVCVQGVCQCHEDFTAEDCSEQRCPGDCSGNGFCDTGECYCEMGFTGPDCSQVVAPQGLQLLKSTENSLLVSWEPSSEVDYYLLSYYPLGKEQATKQVRVPKEQHTYDITGLLPGTKYIVTLRNVKKDISSSPQHLLATTDLAVLGTAWVNEETETSLDVEWENPLTEVDYYKLRYGPLTGQEVTEVTVPKSRDPKSRYDITGLQPGTEYKITVVPIRGDLEGKPILLNGRTEIDGPTNVVTNQVTEDTASVSWDPVRADIDKYVVRYIAPDGETKEKAVPKDQSSTVLTGLKPGEAYKVFVWAERGNQGSKKADTKALTEIDSPENLVTDRVTENSLSVSWDPVEADIDRYVVSYTSVDGETKQVPVKKDQRSTVLTGLSPGVEYKVYVWAEKGDRESKKANTKAPTDIDSPKNLVTDQVTENTLSVSWDPVQANIDRYMVSYTSADGETREVPVPKEKSSTVLTGLRPGVEYKVHVWAQKGTQESRKANTKAPTDIDGPKNLVTDQVTETTLSVSWDPVEADIDRYMVRYTSPDGETKEVPVSKDKSSTVLRGLRPGVEYKVDVWAQKGAQDSRKANTKAPTDIDSPKNLVTEQVAESTATVSWDPVEADIDRYVVRYTSADGETREIPVRKEKSSTVLTGLRPGVEYTVQVWAQKGARESKKAKTKAPTEIDSPKNLVTNRVTENTATISWDPVRANIDRYMVRYTSADGETKEIPVSKDQSNTILTGLKPGMEYTIHVWAQKGARESKKADTKALTEIDPPRNLRPFGVTHSGGVLTWLPPSAQIDGYILTYQFPNGTVKGVELPRGQQRFELQDLEQGVTYPVSLVAFKGNQRSRTVSTTLSTVDARFPHPSDCSQVQQNTNAASGLYTIYLNGDASRPMQVYCDMDTDGGGWIVFQRRNTGQLDFFKRWRSYVEGFGDPMKEFWLGLDKLHNLTTGTTTRYEVRADLQTFNESAYAVYDFFQVASSKERYKLSVGKYRGTAGDALTYHNGWKFTTFDRDSDIALSNCALTHHGGWWYKNCHLANPNGKYGETKHSEGVNWEPWKGHEFSIPYVELKIRPFGYSRDRFSGRKKRSIGKARMFHHHHHH
notes: also called full length mouse tenascin-W protein; purified tenascin-W
As to B1, the binding result is “no binding”.
